# Results reported in patent US20210147523A1 (TEIJIN PHARMA, published 2021).
# T1: human SPNS2 R200A mutant (human, UniProt Q8IVW8 1-549)
# T1 sequence: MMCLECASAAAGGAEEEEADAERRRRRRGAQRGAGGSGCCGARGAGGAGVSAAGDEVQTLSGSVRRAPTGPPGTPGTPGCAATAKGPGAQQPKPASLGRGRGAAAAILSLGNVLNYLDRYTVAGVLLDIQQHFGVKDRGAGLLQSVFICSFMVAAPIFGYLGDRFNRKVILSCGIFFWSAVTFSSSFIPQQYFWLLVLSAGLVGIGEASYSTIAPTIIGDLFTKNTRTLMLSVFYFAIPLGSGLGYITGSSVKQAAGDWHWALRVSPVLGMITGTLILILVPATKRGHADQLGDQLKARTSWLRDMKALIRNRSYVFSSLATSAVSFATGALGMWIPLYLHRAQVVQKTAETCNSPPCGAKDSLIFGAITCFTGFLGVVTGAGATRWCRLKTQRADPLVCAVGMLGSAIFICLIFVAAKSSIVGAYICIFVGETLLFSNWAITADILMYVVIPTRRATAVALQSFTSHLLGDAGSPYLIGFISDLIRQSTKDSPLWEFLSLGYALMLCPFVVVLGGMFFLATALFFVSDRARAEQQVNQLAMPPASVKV
# T2: human SPNS2 W259A mutant (human, UniProt Q8IVW8 1-549)
# T2 sequence: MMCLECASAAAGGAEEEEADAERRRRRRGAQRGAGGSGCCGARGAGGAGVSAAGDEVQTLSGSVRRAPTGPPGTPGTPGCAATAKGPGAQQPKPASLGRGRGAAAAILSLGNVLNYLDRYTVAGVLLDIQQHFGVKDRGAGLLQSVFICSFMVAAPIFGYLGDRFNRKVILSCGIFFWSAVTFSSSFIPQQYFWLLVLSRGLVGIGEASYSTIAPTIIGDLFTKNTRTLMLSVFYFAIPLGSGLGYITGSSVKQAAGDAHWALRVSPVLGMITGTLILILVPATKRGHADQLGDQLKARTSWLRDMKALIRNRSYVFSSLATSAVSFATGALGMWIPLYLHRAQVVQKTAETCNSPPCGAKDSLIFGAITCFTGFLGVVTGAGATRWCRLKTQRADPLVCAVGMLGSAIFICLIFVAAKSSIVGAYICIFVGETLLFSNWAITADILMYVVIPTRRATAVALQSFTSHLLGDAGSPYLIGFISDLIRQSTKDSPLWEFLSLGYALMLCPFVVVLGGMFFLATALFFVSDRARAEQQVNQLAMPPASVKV
# T3: human SPNS2 K136A mutant (human, UniProt Q8IVW8 1-549)
# T3 sequence: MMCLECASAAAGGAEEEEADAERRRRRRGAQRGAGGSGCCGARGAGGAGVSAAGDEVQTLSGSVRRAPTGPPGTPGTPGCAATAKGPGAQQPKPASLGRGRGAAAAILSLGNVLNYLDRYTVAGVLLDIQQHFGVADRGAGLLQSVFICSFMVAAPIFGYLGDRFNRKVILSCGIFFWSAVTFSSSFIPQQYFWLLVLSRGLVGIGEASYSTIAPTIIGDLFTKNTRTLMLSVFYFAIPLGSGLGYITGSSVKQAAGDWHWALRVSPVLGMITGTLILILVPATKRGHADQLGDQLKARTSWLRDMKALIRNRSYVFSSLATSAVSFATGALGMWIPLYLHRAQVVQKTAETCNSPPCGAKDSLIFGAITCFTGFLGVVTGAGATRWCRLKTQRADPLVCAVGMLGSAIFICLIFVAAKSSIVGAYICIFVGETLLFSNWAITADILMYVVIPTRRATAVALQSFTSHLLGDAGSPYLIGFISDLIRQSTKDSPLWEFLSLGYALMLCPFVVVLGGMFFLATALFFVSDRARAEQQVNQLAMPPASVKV
# T4: mouse SPNS2 (mouse, UniProt Q91VM4 1-549)
# T4 sequence: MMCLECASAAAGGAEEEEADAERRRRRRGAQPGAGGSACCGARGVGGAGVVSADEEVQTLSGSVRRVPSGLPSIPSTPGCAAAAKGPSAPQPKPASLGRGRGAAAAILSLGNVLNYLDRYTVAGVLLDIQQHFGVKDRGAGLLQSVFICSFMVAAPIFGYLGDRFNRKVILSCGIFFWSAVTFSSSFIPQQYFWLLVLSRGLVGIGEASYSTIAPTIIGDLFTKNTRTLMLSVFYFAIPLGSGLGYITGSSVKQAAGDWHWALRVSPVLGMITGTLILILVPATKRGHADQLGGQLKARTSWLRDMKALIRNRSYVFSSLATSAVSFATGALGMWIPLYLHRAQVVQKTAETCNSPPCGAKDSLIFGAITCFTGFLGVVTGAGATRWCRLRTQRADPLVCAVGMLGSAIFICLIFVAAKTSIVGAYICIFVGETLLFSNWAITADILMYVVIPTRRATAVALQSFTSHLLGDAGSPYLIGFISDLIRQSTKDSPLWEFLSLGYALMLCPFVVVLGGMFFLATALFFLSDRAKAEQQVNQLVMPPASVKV
# T5: human SPNS2 Q130A mutant (human, UniProt Q8IVW8 1-549)
# T5 sequence: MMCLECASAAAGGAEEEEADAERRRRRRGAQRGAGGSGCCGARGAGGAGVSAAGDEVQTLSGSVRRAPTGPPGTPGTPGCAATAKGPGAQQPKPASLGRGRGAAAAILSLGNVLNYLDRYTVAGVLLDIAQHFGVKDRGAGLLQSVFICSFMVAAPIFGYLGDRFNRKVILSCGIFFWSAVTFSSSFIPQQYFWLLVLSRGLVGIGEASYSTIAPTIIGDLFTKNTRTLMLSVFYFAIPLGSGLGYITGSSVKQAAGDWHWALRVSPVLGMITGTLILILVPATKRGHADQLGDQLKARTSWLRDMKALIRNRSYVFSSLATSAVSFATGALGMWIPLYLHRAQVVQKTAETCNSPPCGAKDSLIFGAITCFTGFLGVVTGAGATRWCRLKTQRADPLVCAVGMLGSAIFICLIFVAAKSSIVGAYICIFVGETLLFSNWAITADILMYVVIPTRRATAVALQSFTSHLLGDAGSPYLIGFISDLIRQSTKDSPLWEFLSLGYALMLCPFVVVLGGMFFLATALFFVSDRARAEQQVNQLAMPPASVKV
# B1: 65-0810G (antibody, IgG2b, V domains shown)
# VH: EVHLVESGGGLVQPGRSMKLSCTASGFTFNNYYMAWVRQAPTKGLEWVASISTGGGYTYYRDSVKGRFTISRDNTGNTLYLQMDSLRSEDTATYYCARCWELPYWGQGVMVTVSS
# VL: QFVLTQPNSVSTNLGSTVKLSCRRSSGNIGNNYVNWYRQHEGRSPTTMIYRDDTRPDGVPNRFSGSIDRSSNSALLTINNVRPEDEAYYFCQSYSGSIYIFGGGTKLTVL
# B2: 33-0503E (antibody, IgG2b, V domains shown)
# VH: EVQLVESGGGLVRPGGSMKLSCGASGFIFDNYYMTWVRQAPTKGLEWVASISSSGGNTYYRDSVRGRFTISRDNAGNTLSLQMGSLRAEDTATYHCAKEGYRGRYFDYWGQGVMVTVSS
# VL: QVVLTQPNSVSTNLGSTVKLSCKRTTGNIGSNYVNWYQQHEGRSPTTMIYRDDERPDGVPDRFSGSIDRSSNSALLTINNVQTEDEAEYFCQSYSSGIIFGGGTKLTVL
# B3: 64-0807A (antibody, IgG2b, V domains shown)
# VH: EVQVVESGGGLVQPGRSMKLSCAALGFTFRDYYMAWVRQTPTKGLEWVAAISTGGGNTYYRDSVKGRFTISRDNAKSTLYLQMDSLRSDDTATYYCARNPYGNYFDYWGQGVMVTVSS
# VL: QFVLSQPNSVSTNLGSTVKLSCKRSTGNIGSNYVHWYQRHEGRSPTTLIYRDDKRPNGVPDRFSGSIDRSSNSALLTINNVQTEDEADYFCQSYSGGMYLFGGGTKLTVL
# B4: 50-0704C (antibody, IgG2b, V domains shown)
# VH: EVQLVGSGGGLVQPGRSMKLSCEASGFTFSNHYMAWVRQAPTKGLEWVATISTGGGNTYYRDSVKGRFTISRDNARSTLSLQMDSLRSEDTATYYCARQDYSNYMGGFAYWGQGTLVTVSS
# VL: QFVLTQPNSVSTNLGSTVKLSCTRSIGNIGNNYVNWYKQYEGRSPTTMIYRDDERPDGVPDRFSGSIDRSSNSALLTINSVQTEDEADYFCQSFSSGIFIFGGGTKLTVL
# B5: 49-0703G (antibody, IgG2b, V domains shown)
# VH: EVQLVESGGGLVQPGRSMKLSCAASGFTFSNHYMAWVRQAPTKGLEWVASISTGGGNTYYRDSVKGRFTISRDNAKSTLYLQMDSLRSEDTATYYCARQDYSNYMGGFAYWGQGTLVTVSS
# VL: QFVLTQPNSVSTNLGSTVKLSCKRSTGNIGNNYVNWYQQYEGRSPTTMIYRDDERPDGVPDRFSGSIDRSSNSALLTINNVQTEDEADYFCQSFSNGMFIFAGGTQLTVL
# B6: 18-0211B (antibody, IgG2b, V domains shown)
# VH: AVQLVGSGGGLVQPGRSMKLSCEASGFTFSNHYMAWVRQAPTRGLEWVATISTGGGNTYYRDSVKGRFTISRDNTRSTLSLQMDSLRSEDTATYYCTRQDYTNYMGGFAYWGQGTLVTVSS
# VL: QFVLTQPNSVSTNLGSTVKLSCTRSIGNIGNNYVNWYKQYEGRSPTTLIYRDDERPDGVPDRFSGSIDRSSNSALLTINSVQTEDGADYFCQSFSSGIFIFGGGTTLTVL
# Experiments:
# [1] = biological target: T1, human SPNS2 R200A mutant; assay: flow cytometry
# [2] = biological target: T2, human SPNS2 W259A mutant; assay: flow cytometry
# [3] = biological target: T3, human SPNS2 K136A mutant; assay: flow cytometry
# [4] = biological target: T4, mouse SPNS2; assay: cell-based or functional assay
# [5] = biological target: T5, human SPNS2 Q130A mutant; assay: flow cytometry
Binder,binding ratio vs native type [1] [ratio],binding ratio vs native type [2] [ratio],binding ratio vs native type [3] [ratio],"pIC50, S1P transport inhibition (LC-MS/MS of S1P) [4]",binding ratio vs native type [5] [ratio]
B1,< 0.5,< 0.5,< 0.5,7.8 pIC50 (M),–
B2,< 0.5,< 0.5,< 0.5,7.7 pIC50 (M),–
B3,–,< 0.5,< 0.5,7.7 pIC50 (M),–
B4,–,< 0.5,< 0.5,7.8 pIC50 (M),< 0.5
B5,< 0.5,< 0.5,< 0.5,7.6 pIC50 (M),< 0.5
B6,–,–,< 0.5,8.1 pIC50 (M),< 0.5
